{"source": "IntAct's records for PubMed 20890290", "parents": {"B1": {"name": "Elongation factor 1 alpha-like protein (Schizosaccharomyces pombe (strain ATCC 38366 / 972)), O74774 (parent)", "chain": "MSRHRDVKNLDLDDYELDEEPGEEELTEEQEEEFRSAVATVRETLLGVPISEKEIADTVWYYYFDVEKSVNYLLQKASSKAGAKEKQNTDSQKEKKQNKSKEALADAKDPLDESSNGIKNLSLNKNDEPAFQTNGEVKMKNSSESDNQPEKKKIKKQNPTDLVSVPEIFEQSNPKPVVHLVVTGHVDSGKSTMLGRIMFELGEINSRSMQKLHNEAANSGKGSFSYAWLLDTTEEERARGVTMDVASTTFESDKKIYEIGDAPGHRDFISGMIAGASSADFAVLVVDSSQNNFERGFLENGQTREHAYLLRALGISEIVVSVNKLDLMSWSEDRFQEIKNIVSDFLIKMVGFKTSNVHFVPISAISGTNLIQKDSSDLYKWYKGPTLLSALDQLVPPEKPYRKPLRLSIDDVYRSPRSVTVTGRVEAGNVQVNQVLYDVSSQEDAYVKNVIRNSDPSSTWAVAGDTVTLQLADIEVNQLRPGDILSNYENPVRRVRSFVAEIQTFDIHGPILSGSTLVLHLGRTVTSVSLKIVTVNNKRSRHIASRKRALVRISFLDGLFPLCLAEECPALGRFILRRSGDTVAAGIVKELC", "partner": "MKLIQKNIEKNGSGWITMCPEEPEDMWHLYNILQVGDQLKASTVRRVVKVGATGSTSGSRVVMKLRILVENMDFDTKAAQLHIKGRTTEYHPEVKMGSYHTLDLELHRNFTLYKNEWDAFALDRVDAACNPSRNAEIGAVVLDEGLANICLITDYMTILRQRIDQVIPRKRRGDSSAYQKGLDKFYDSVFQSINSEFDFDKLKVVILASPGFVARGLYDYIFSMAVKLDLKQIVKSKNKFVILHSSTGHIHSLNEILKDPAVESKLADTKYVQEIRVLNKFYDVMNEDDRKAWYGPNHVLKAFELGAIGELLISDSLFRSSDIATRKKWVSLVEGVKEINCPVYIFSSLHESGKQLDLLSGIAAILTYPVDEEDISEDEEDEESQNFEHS"}, "B2": {"name": "Protein dom34 (Schizosaccharomyces pombe (strain ATCC 38366 / 972)), Q9USL5 (parent)", "chain": "B1 partner", "partner": "B1 chain"}}}
{"variants_of": "B1", "details": "with dom34_schpo dom34, Q9USL5"}
{"variant": "R480A", "effect of a mutation on the interaction": "decreasing interaction"}
{"variant": "D557A", "effect of a mutation on the interaction": "decreasing interaction"}
{"variant": "K531A", "effect of a mutation on the interaction": "decreasing interaction"}
{"variant": "R541A", "effect of a mutation on the interaction": "decreasing interaction"}
{"variant": "R523A", "effect of a mutation on the interaction": "decreasing interaction"}
{"variant": "D411A", "effect of a mutation on the interaction": "decreasing interaction"}
{"variants_of": "B2", "details": "with hbs1_schpo hbs1, O74774"}
{"variant": "D164A", "effect of a mutation on the interaction": "decreasing interaction"}
{"variant": "R162A", "effect of a mutation on the interaction": "decreasing interaction"}
